# Assay results taken from US20150037348A1 (AbbVie / Abbott, published 2015).
# Where a chain is given by its changes, count along the chain named. Values joined by “and” are separate entries in the source; they are usually repeats but may differ in a detail not shown here. Identical values can stand only once.
# T1: recombinant human IL-12 (rhIL-12) (human, UniProt P29459 23-219; P29460 23-328)
# T1 sequence (looked up) 1: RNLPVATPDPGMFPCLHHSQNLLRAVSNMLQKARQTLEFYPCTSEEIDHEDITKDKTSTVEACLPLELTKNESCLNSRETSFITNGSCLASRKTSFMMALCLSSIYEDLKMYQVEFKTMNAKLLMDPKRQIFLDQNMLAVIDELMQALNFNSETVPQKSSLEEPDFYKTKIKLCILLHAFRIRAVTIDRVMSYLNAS
# T1 sequence (looked up) 2: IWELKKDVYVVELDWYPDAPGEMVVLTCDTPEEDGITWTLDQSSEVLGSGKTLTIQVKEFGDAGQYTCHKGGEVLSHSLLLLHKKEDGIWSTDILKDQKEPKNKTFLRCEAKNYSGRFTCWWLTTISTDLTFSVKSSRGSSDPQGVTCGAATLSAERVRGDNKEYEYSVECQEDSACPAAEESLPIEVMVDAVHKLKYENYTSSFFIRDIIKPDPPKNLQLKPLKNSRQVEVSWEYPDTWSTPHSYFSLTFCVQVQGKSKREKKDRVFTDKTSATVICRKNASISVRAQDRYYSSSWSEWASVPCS
# T2: recombinant rhesus IL-12 (rhesus monkey, UniProt P48091 23-219; P48095 23-328)
# T2 sequence (looked up) 1: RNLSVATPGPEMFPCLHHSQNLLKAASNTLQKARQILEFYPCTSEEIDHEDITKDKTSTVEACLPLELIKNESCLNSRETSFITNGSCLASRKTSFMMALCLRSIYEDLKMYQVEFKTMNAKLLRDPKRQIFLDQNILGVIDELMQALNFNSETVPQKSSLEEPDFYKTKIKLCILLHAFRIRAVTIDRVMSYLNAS
# T2 sequence (looked up) 2: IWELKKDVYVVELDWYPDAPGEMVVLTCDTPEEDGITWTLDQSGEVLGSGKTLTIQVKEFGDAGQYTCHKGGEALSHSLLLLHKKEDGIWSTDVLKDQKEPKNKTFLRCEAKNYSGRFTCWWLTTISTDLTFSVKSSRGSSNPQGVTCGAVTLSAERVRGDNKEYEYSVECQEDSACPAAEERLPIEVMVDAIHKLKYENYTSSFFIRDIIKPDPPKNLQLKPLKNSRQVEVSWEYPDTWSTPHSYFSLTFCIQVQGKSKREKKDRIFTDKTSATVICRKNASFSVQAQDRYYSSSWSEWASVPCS
# T3: baboon IL-12 (PBMC supernatant) (baboon)
# T3 chain 1: T2 sequence (looked up) 2 with V230A
# T3 chain 2: T2 sequence (looked up) 1 with F82V, N85K, K110Q, M111I, R125M, K172R
# T4: cynomolgus IL-12 (PBMC supernatant) (cynomolgus monkey)
# T4 chain 1: T2 sequence (looked up) 1
# T4 chain 2: T2 sequence (looked up) 2
# T5: dog IL-12 (PBMC supernatant) (dog, UniProt Q28267 26-222; Q28268 23-329)
# T5 sequence (looked up) 1: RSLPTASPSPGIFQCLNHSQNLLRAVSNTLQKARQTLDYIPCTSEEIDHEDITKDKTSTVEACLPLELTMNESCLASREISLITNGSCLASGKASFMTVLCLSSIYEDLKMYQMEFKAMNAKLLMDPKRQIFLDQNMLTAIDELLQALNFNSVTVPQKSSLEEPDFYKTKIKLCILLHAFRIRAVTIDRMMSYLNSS
# T5 sequence (looked up) 2: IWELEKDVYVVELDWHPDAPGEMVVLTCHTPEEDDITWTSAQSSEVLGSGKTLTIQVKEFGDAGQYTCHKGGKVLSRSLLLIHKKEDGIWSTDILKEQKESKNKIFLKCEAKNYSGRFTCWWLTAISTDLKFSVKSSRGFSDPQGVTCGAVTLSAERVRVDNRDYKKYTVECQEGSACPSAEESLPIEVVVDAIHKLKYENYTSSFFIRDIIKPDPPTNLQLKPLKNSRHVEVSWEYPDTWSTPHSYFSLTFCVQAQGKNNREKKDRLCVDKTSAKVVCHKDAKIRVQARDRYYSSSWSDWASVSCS
# B1: J695 (antibody, human IgG1, V domains shown)
# VH: QVQLVESGGGVVQPGRSLRLSCAASGFTFSSYGMHWVRQAPGKGLEWVAFIRYDGSNKYYADSVKGRFTISRDNSKNTLYLQMNSLRAEDTAVYYCKTHGSHDNWGQGTMVTVSS
# VL: QSVLTQPPSVSGAPGQRVTISCSGSRSNIGSNTVKWYQQLPGTAPKLLIYYNDQRPSGVPDRFSGSKSGTSASLAITGLQAEDEADYYCQSYDRYTHPALLFGTGTKVTVLG
# notes: human IgG1 with lambda light chain
# Columns and labels:
# [1] = target: T1, recombinant human IL-12 (rhIL-12); experiment: cell-based or functional assay
# [2] = target: T1, recombinant human IL-12 (rhIL-12); experiment: receptor binding assay, 125I-hIL-12 on PHA blasts
# Description: PHA blast cells isolated as described above, were washed once and resuspended in binding buffer to a cell density of 2×10⁷ cells/ml. […] The cell pellet was examined for cell bound radioactivity using a gamma counter. […] Incubations were carried out in duplicate.
# Incubations were carried out in duplicate.
# [3] = target: T1, recombinant human IL-12 (rhIL-12); experiment: BIAcore, captured J695, soluble rhIL-12, average
# Description: Before injection of the protein and immediately afterward, HBS buffer alone flowed through each flow cell. […] Cytokines were diluted in HBS running buffer and 50 μl aliquots were injected through the immobilized protein matrices at a flow rate of 5 μl/min. […] The net difference in baseline signal and signal after completion of cytokine injection was taken to represent the binding value of the particular sample. Biosensor matrices were regenerated using 100 mM HCl before injection of the next sample. To determine the dissociation constant (off-rate), association constant (on-rate), BIAcore kinetic evaluation software (version 2.1) was used.
# [4] = target: T2, recombinant rhesus IL-12; experiment: cell-based or functional assay
# [5] = target: T1, recombinant human IL-12 (rhIL-12); experiment: cell-based or functional assay; remark: listed apart in the source
# [6] = target: T3, baboon IL-12 (PBMC supernatant); experiment: cell-based or functional assay
# [7] = target: T4, cynomolgus IL-12 (PBMC supernatant); experiment: cell-based or functional assay
# [8] = target: T5, dog IL-12 (PBMC supernatant); experiment: cell-based or functional assay
binder,measurement,setting,value
B1,IFN-γ Assay IC50,[1],5.8 pM and 4.3 pM
same,PHA blast Assay IC50,[1],5.5 pM and 4.4 pM
same,IC50,[2],34 pM and 30 pM
same,Kd,[3],134 pM and 97.4 pM
same,"IC50 (M), bioassay, Rhesus IL-12 Purified",[4],1e-11 M
same,"IC50 (M), bioassay, Human IL-12 Purified",[5],5e-12 M
same,"IC50 (M), bioassay, Baboon IL-12 PBMC sup",[6],1.5e-11 M
same,"IC50 (M), bioassay, Cyno IL-12 PBMC sup",[7],1e-11 M
same,"IC50 (M), bioassay, Dog IL-12 PBMC sup",[8],3.5e-10 M
